# Columns and labels:
# [1] = tested on: Nup62-NLS; experiment: Spatial deglycosylation of nuclear Nup62-NLS by OGA-intein(C181) variants in HEK293T cells; assay type: cell-based; details: nuclear Nup62-NLS co-expressed
# Protocol: (§1) Next, it was assessed whether these OGA-intein(C181) variants enable selective spatial deglycosylation in live cells. As O-GlcNAc affects the subcellular localization of many proteins (37), Nup62 was used as a model cytoplasmic substrate, which was previously primarily localized in the cytoplasm when transiently overexpressed in HEK293T cells independent of the O-GlcNAcylation state (13) (FIGS. 11A, 11B). Nup62 was co-expressed with three OGA-intein(C181) variants (C181-WT, C181-NLS, and C181-NES) in HEK293T cells, and Nup62 was enriched for O-GlcNAc measurement. […] Next, Nup62 was localized to the nucleus by attachment to an NLS tag (Nup62-NLS), and a similar coexpression and 4-HT-triggered activation was performed with OGA-intein(C181) variants. […] The fluorescent intensity of OGA-intein variants also show a strong correlation to the localization of Nup62, indicating the desired subcellular distribution (FIGS. 11A-C).
# (§2) Immunoprecipitation and Immunoblot assays. […]
# (§3) For immunoblotting analysis, proteins were transferred to a nitrocellulose membrane using an iBlot system (Invitrogen). […] Immunoblot images were captured using Azure Imager C600 and analyzed with Fiji ImageJ for converting all IR fluorescence western blot images to grayscale images.
# [2] = tested on: global O-GlcNAc level in MCF-7 cells; experiment: Immunoblot of global O-GlcNAc level and splicing in MCF-7 stable cell lines; assay type: cell-based, human; details: MCF-7 cells stably expressing the variant
# From the text: In addition to serving as an activator for intein splicing, 4-HT is also known as the active metabolite of tamoxifen, an FDA-approved drug for treating breast cancer patients. Breast cancer cells also have elevated OGT expression (39) and decreased levels of OGA (40, 41), resulting in elevated O-GlcNAcylation in the proteome. OGT is usually required for tumor growth and metastasis (39), and low OGA expression is correlated with poor survival in breast cancer patients (FIG. 13). The ER positive breast cancer-derived MCF-7 cell line is sensitive to tamoxifen and 4-HT, resulting in suppression of cell proliferation, yet drug resistance occurs after long-term treatment (42). Previous studies also show evidence that upregulation of O-GlcNAcylation protects MCF-7 cells from tamoxifen-induced cell death (43). To determine if reduction of O-GlcNAc sensitized MCF-7 cells to 4-HT treatment, it was assessed whether 4-HT induced inhibition of breast cancer cell proliferation and OGA-intein activation worked synergistically to accelerate cell death (FIG. 5A). […] Next, these two cell lines were treated with 4-HT at increasing concentrations, and cell viability was measured after 48 hours. […] Given that 4-HT promoted MCF-7 cell death through apoptosis (43), the apoptosis of these cells under 4-HT treatment was further analyzed through flow cytometry analyses following Annexin V and DAPI staining. […]
# [3] = tested on: Nup62; experiment: Spatial deglycosylation of cytoplasmic Nup62 by OGA-intein(C181) variants in HEK293T cells; assay type: cell-based; details: cytoplasmic Nup62 co-expressed
# Protocol: as §1, §2, §3
molecule,measurement,setting,value
C181-NLS: OGA-intein(C181) appended to a nuclear-localization sequence (protein) MEQKLISEEDLAIAMVQKESQATLEERESELSSNPAASAGASLEPPAAPAPGEDNPAGAGGAAVAGAAGGARRFLCGVVEGFYGRPWVMEQRKELFRRLQKWELNTYLYAPKDDYKHRMFWREMYSVEEAEQLMTLISAAREYEIEFIYAISPGLDITFSNPKEVSTLKRKLDQVSQFGCRSFALLFDDIDHNMCLAEGTRIFDPVTGTTHRIEDVVDGRKPIHVVAAAKDGTLLARPVVSWFDQGTRDVIGLRIAGGAIVWATPDHKVLTEYGWRAAGELRKGDRVAGPGGSGNSLALSLTADQMVSALLDAEPPILYSEYDPTSPFSEASMMGLLTNLADRELVHMINWAKRVPGFVDLTLHDQAHLLERAWLEILMIGLVWRSMEHPGKLLFAPNLLLDRNQGKCVEGMVEIFDMLLATSSRFRMMNLQGEEFVCLKSIILLNSGVYTFLSSTLKSLEEKDHIHRALDKITDTLIHLMAKAGLTLQQQHQRLAQLLLILSHIRHMSNKGMEHLYSMKYKNVVPLYDLLLEMLDAHRLHAGGSGASRVQAFADALDDKFLHDMLAEGLRYSVIREVLPTRRARTFDLEVEELHTLVAEGVVVHNCAADKEVFSSFAHAQVSITNEIYQYLGEPETFLFCPTEYCGTFCYPNVSQSPYLRTVGEKLLPGIEVLWTGPKVVSKEIPVESIEEVSKIIKRAPVIWDNIHANDYDQKRLFLGPYKGRSTELIPRLKGVLTNPNCEFEANYVAIHTLATWYKSNMNGVRKDVVMTDSEDSTVSIQIKLENEGSDEDIETDVLYSPQMALKLALTEWLQEFGVPHQYSSRGSGSGSGSGSGSGSGEKPLYTAEPVTLEDLQLLADLFYLPYEHGPKGAQMLREFQWLRANSSVVSVNCKGKDSEKIEEWRSRAAKFEEMCGLVMGMFTRLSNCANRTILYDMYSYVWDIKSIMSMVKSFVQWLGCRSHSSAQFLIGDQEPWAFRGGLAGEFQRLLPIDGANDLFFQPPKRPAATKKAGQAKKKK,4-HT-induced deglycosylation of Nup62-NLS,[1],4-HT-induced deglycosylation
C181_D174N: catalytically dead mutant (D174N) of OGA-intein(C181) (protein) MEQKLISEEDLAIAMVQKESQATLEERESELSSNPAASAGASLEPPAAPAPGEDNPAGAGGAAVAGAAGGARRFLCGVVEGFYGRPWVMEQRKELFRRLQKWELNTYLYAPKDDYKHRMFWREMYSVEEAEQLMTLISAAREYEIEFIYAISPGLDITFSNPKEVSTLKRKLDQVSQFGCRSFALLFNDIDHNMCLAEGTRIFDPVTGTTHRIEDVVDGRKPIHVVAAAKDGTLLARPVVSWFDQGTRDVIGLRIAGGAIVWATPDHKVLTEYGWRAAGELRKGDRVAGPGGSGNSLALSLTADQMVSALLDAEPPILYSEYDPTSPFSEASMMGLLTNLADRELVHMINWAKRVPGFVDLTLHDQAHLLERAWLEILMIGLVWRSMEHPGKLLFAPNLLLDRNQGKCVEGMVEIFDMLLATSSRFRMMNLQGEEFVCLKSIILLNSGVYTFLSSTLKSLEEKDHIHRALDKITDTLIHLMAKAGLTLQQQHQRLAQLLLILSHIRHMSNKGMEHLYSMKYKNVVPLYDLLLEMLDAHRLHAGGSGASRVQAFADALDDKFLHDMLAEGLRYSVIREVLPTRRARTFDLEVEELHTLVAEGVVVHNCAADKEVFSSFAHAQVSITNEIYQYLGEPETFLFCPTEYCGTFCYPNVSQSPYLRTVGEKLLPGIEVLWTGPKVVSKEIPVESIEEVSKIIKRAPVIWDNIHANDYDQKRLFLGPYKGRSTELIPRLKGVLTNPNCEFEANYVAIHTLATWYKSNMNGVRKDVVMTDSEDSTVSIQIKLENEGSDEDIETDVLYSPQMALKLALTEWLQEFGVPHQYSSRGSGSGSGSGSGSGSGEKPLYTAEPVTLEDLQLLADLFYLPYEHGPKGAQMLREFQWLRANSSVVSVNCKGKDSEKIEEWRSRAAKFEEMCGLVMGMFTRLSNCANRTILYDMYSYVWDIKSIMSMVKSFVQWLGCRSHSSAQFLIGDQEPWAFRGGLAGEFQRLLPIDGANDLFFQPP,global O-GlcNAc level after adding 4-HT,[2],inactive form
C181-NES: OGA-intein(C181) appended to a nuclear-export sequence (protein) MEQKLISEEDLAIAMVQKESQATLEERESELSSNPAASAGASLEPPAAPAPGEDNPAGAGGAAVAGAAGGARRFLCGVVEGFYGRPWVMEQRKELFRRLQKWELNTYLYAPKDDYKHRMFWREMYSVEEAEQLMTLISAAREYEIEFIYAISPGLDITFSNPKEVSTLKRKLDQVSQFGCRSFALLFDDIDHNMCLAEGTRIFDPVTGTTHRIEDVVDGRKPIHVVAAAKDGTLLARPVVSWFDQGTRDVIGLRIAGGAIVWATPDHKVLTEYGWRAAGELRKGDRVAGPGGSGNSLALSLTADQMVSALLDAEPPILYSEYDPTSPFSEASMMGLLTNLADRELVHMINWAKRVPGFVDLTLHDQAHLLERAWLEILMIGLVWRSMEHPGKLLFAPNLLLDRNQGKCVEGMVEIFDMLLATSSRFRMMNLQGEEFVCLKSIILLNSGVYTFLSSTLKSLEEKDHIHRALDKITDTLIHLMAKAGLTLQQQHQRLAQLLLILSHIRHMSNKGMEHLYSMKYKNVVPLYDLLLEMLDAHRLHAGGSGASRVQAFADALDDKFLHDMLAEGLRYSVIREVLPTRRARTFDLEVEELHTLVAEGVVVHNCAADKEVFSSFAHAQVSITNEIYQYLGEPETFLFCPTEYCGTFCYPNVSQSPYLRTVGEKLLPGIEVLWTGPKVVSKEIPVESIEEVSKIIKRAPVIWDNIHANDYDQKRLFLGPYKGRSTELIPRLKGVLTNPNCEFEANYVAIHTLATWYKSNMNGVRKDVVMTDSEDSTVSIQIKLENEGSDEDIETDVLYSPQMALKLALTEWLQEFGVPHQYSSRGSGSGSGSGSGSGSGEKPLYTAEPVTLEDLQLLADLFYLPYEHGPKGAQMLREFQWLRANSSVVSVNCKGKDSEKIEEWRSRAAKFEEMCGLVMGMFTRLSNCANRTILYDMYSYVWDIKSIMSMVKSFVQWLGCRSHSSAQFLIGDQEPWAFRGGLAGEFQRLLPIDGANDLFFQPPLALKLAGLDIN,removal of O-GlcNAc from Nup62 after 4-HT-triggered activation,[3],removed O-GlcNAc from Nup62
